The values below come from paper PMC9079088, “FBXO2 targets glycosylated SUN2 for ubiquitination and degradation to promote ovarian cancer development” (Cell Death & Disease, 2022).

The target in the assay is T1, HA-SUN2 (human (cDNA from 293T or A2780 cells), UniProt Q9UH99 1-717, N-glycosylation (sites not given)).
T1 construct: SAD1/UNC84 domain protein-2 (SUN2), cloned from cDNAs of 293T or A2780 cells; also called SAD1/UNC84 domain protein-2; source: HEK293T, transiently transfected; immunoprecipitated with anti-HA resin and eluted with HA peptide, or in lysate
T1 sequence (looked up): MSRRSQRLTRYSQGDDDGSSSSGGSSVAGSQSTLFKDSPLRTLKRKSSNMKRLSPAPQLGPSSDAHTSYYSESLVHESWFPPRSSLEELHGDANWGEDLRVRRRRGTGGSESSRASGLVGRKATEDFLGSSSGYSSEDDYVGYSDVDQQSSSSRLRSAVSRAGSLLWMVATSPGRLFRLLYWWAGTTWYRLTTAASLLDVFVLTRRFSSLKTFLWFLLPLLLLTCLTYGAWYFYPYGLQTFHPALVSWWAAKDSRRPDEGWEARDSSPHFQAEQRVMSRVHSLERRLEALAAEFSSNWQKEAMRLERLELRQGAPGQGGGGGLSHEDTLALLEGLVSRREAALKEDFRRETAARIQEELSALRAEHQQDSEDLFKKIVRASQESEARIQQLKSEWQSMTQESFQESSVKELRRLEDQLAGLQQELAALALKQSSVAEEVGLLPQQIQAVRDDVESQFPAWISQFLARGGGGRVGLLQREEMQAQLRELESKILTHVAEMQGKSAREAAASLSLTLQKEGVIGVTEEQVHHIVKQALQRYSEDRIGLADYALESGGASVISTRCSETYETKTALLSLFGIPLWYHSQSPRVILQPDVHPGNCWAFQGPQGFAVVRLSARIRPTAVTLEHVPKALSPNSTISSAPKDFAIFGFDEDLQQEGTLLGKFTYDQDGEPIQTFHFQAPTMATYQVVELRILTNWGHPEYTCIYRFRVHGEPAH
Description: pull-down; GST or GST-FBXO2 incubated with HA-SUN2 (anti-HA resin, eluted with HA peptide) in PB buffer (20 mM HEPES pH 7.5, 130 mM KCl, 5 mM MgCl2, 1 mM DTT, 0.5 mM EDTA, 0.05% NP40) at 30 °C for 2 h, then glutathione beads; the legend speaks of lysed cells. To be noted: both partners purified.

B1: GST-FBXO2 WT (natural protein, human, UniProt Q9UK22 1-296, looked up)
chain: MDGDGDPESVGQPEEASPEEQPEEASAEEERPEDQQEEEAAAAAAYLDELPEPLLLRVLAALPAAELVQACRLVCLRWKELVDGAPLWLLKCQQEGLVPEGGVEEERDHWQQFYFLSKRRRNLLRNPCGEEDLEGWCDVEHGGDGWRVEELPGDSGVEFTHDESVKKYFASSFEWCRKAQVIDLQAEGYWEELLDTTQPAIVVKDWYSGRSDAGCLYELTVKLLSEHENVLAEFSSGQVAVPQDSDGGGWMEISHTFTDYGPGVRFVRFEHGGQDSVYWKGWFGARVTNSSVWVEP
notes: F-box protein FBXO2, human; also called GST tagged FBXO2
Consider B1, for which the binding result is on record as “binds”.
